Data taken from a protein production outcome set (Wang et al. 2014).

Assay: label from the status in PepcDB records
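Also: failed if final PepcDB status was selected cloned or expressed and not failed if soluble or beyond.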

Sequence | protein production
MKTFKKGVILDAKSVGLKALEVLKEVADFDFYEVTPPSQIVERSIEAEIMVLNKVVITQEVLSQLPKLKLICITATGTDNVDIKSAKALGIEVKNVSAYSTESVAQHTLACALSLLGRINDYDRYCKSGEYSQSDLFTHISDIKMGLIKGSQWGVIGLGTIGKRVAKLAQAFGAKVVYYSPKDKKEEYERLSLKDLLATSDIISIHAPLNESTRDLIALKELQSLKDGAILINVGRGGIVNEKDLAEILETKDLYYASDVFVKEPFEKDHAFLNPKIQNKLLLTPHIAWAYSDSLKTLVEKTKENIQDFLASQK | failed
MEEQVLGQSHDCETAADKSDQKLQDVTLAKTTHWGKIKAMLEEKIDELSQGLHRVASDNAALTRSLQERSEMIVKISEERSKAEADVEKLKD | failed
MDITNIKEMNYEEVFSITITVDKPILIGQDDIVGRRQLIPIISGKVSGNNFNGKVLPGGIDSQIVRPDGKCELSARYAIRLDDGAAIYIENNGIRTVPDEYIEAVKSGEFVDPNAYYFRTIPTFETYSPKYKWMMNHIFVCCASRLPENVLLKFYKIS | not failed
MSSSLMTSSGFRFLFPIALLGMVSVGMGNIIQMTQSNWGIAANLPYILLGCALVLCYSFKQGRESMVCLSMLVAYFVIQHRLQVPLNSGTALLELTILATLLPVSFLTVFLFNKDGFDSKAMFIYVLMLVMFILWSYIILAYYVDGGFEQWTSGILFIVPSVSKLPFILVLYCVGIVCFLGILLLKTNKIIHAMTYSAMALASATFIFFDVQYISSTMFTLTGLLIIIYSTSASHQLAFTDSLTQIPSRRALDLDLKHMGRKFTIAMLDVDHFKKFNDTYGHDIGDDVLKMVASRLMKTRGGAKVYRFGGEEFTMVFKGKNVEDCRQYIEEARKAIAEYEMILRDKASRPDDHKQGQQNRGTEDMQRESVFVTASFGAADSRNGREPAEVIKLADAALYKAKKAGRNCTRVNQN | failed
MFRDFRMSLLVAVICLGLAAWWGHTSSMGIWQALWLCLVLSVLEVSLSFDNAVVNAGVLKHMNAFWQKLFLTVGILIAVFGMRLVFPIVIVSVATGMGLVPVMQMALKEPDRYSQVLTDNYPSIAAFGGMFLLLVFLNFLFDQERKLHWLGPVERLVGKLGKADAMSVIVAVSVLLGTKLFLPDGIFQSVLFAGLGGILLYLLVGSVDALFEAEESEDGSMGPAKRSGIAAFLYLEVLDASFSFDGVIGAFAITRDVVIIMLGLAIGAMFVRSMTVYLVHKGTLDEFVFLEHGAHYAIGVLAIIMLVGTVYHVPEVLTGLIGVAFIAASVWSSIRYRKRHHIGPTEI | failed
MTVDPASHITIPEADLARLRHCNHHDPHGFYGWHETEAGSVIRTRQVGATQVNLLIDDTSHVMTPIGDDIFAIDLGHRERADYRLEVTWPDQEPQVKADPYYFLPTVG | not failed
MTTPSHLSDRYELGEILGFGGMSEVHLARDLRLHRDVAVKVLRADLARDPSFYLRFRREAQNAAALNHPAIVAVYDTGEAETPAGPLPYIVMEYVDGVTLRDIVHTEGPMTPKRAIEVIADACQALNFSHQNGIIHRDVKPANIMISATNAVKVMDFGIARAIADSGNSVTQTAAVIGTAQYLSPEQARGDSVDARSDVYSLGCVLYEVLTGEPPFTGDSPVSVAYQHVREDPIPPSARHEGLSADLDAVVLKALAKNPENRYQTAAEMRADLVRVHNGEPPEAPKVLTDAERTSLLSSAAGNLSGPRTDPLPRQDLDDTDRDRSIGSVGRWVAVVAVLAVLTVVVTIAINTFGGITRDVQVPDVRGQSSADAIATLQNRGFKIRTLQKPDSTIPPDHVIGTDPAANTSVSAGDEITVNVSTGPEQREIPDVSTLTYAEAVKKLTAAGFGRFKQANSPSTPELVGKVIGTNPPANQTSAITNVVIIIVGSGPATKDIPDVAGQTVDVAQKNLNVYGFTKFSQASVDSPRPAGEVTGTNPPAGTTVPVDSVIELQVSKGNQFVMPDLSGMFWVDAEPRLRALGWTGMLDKGADVDAGGSQHNRVVYQNPPAGTGVNRDGIITLRFGQ | failed
ADVSATVSDMGSLLTAVTLAGVLDYYSVGTKVIKAPKKMVEQQILMTLQTMASLVESSGVDGLVKALNPELLSKAASSMHLLDQQKDLDAALEILTHL | not failed
MSSRNTLGNDEPMNQEKEGVESKDTPRTETKGVEKKHSVLVKQDWLPSDYAQYVDEKILNIGFEPDTFQRQAFYLLSRASSVFVSAHTSSGKTLVAEYAISLSQIHGTRTIYTSPIKALSNQKYHDFKQKYDDVGIITGDVQVNPAAKCLVMTTEILRNLVYRNGDLLRDTEFVVFDEVHYINDSERGVVWEECIIMIPRHINFIMLSATIPNSLEFSEWVGRTKDKTIYVISTSKRAVPLEHVIYCDWCVYSIDDGGGKRNASNFKGDLVPFSKKTRPTGKFKILDVANFVVKKKLTPAIFFCFSKRKCEDYAEILRTLNLNDTKSREEVKLFLSEATRCLSPEDRNLPQVLSMSSMVLNGVAVHHGSLLPFVKECVELLFSMNLVKLLIATETFAMGVNMPAKCCVFLSLSKIDGGVFRYISSGEYIQMSGRAGRRGMDAVGTVMIADPKMPSLSTIQGIIHGTPFSLSSQFRLSFGLILISLRSNIRVEDLMRRSYGEHRSQRNYERDMKKLSELESVEEDVCNVCGDLSKYIGAVEEICARNWKLIAKHHVLKEGSRVLLKNNAVGTVERVSGATVFLKQKDEALDNGTPIPTKFLAYPLGTRKPLDRSKVTFENIFCVLDGEKALWNYETANVMDVLEIRKIKSLYDYLLSEQQVCREFDQHYSNALRVHCKRKEMNDIKIRYNVCSLGMIDEYNRRMEFLKKKGFVEEMITIKGRAAAEIHTVNEVLVVEMIFSNEFRQMDGRKIVSLMSSMIHEEADGQELGKALYDECKRMDECFRELSRDLDELMIPPFTPLNFSLVDAVYDWCNGSSLGKIVSRYNVLEGTFVRLVLRLEECCRELISVSTMIGDKSLEEKIGDASASMKRDIIFLPSLYL | failed
MIQRTKAKVMGAPTPMAGLALGIASLGWSWENFAELHGYGQWISAGIASVLLVILATKFLLHNHLLREDLAHPVVGSVVPTFAMGTMVVSNSLGHFYPLAGDVLWLIAVVLHIVFLVSFVYHRAKDFELHHMVPSWFVPPVGIIVADVSFSGNPMLAPVAQGALTFGMVAYAIMLPMMIYRFMFTHEIPDAAKPTMAIMAAPASLSLAGYLTVTATPSPVIIAMLFGIAVLMTAIIYLAFFKLLRLPFSPGYAAFTFPMVIGATALFKMANWMELQGLAAHYVQQVRGLAGLELIVATFVVSYVALQYINNLLIQPRLMHAHHA | not failed
LTTEGGKALVDFAVKRNLQYIHFDAGWYGFEYDKVSDATTVTLDPRRNPDINALNLKEVVAYAKERGIGVILYVNQRALQQQLDEILPLYKSWGIAGIKFGFVQVGSQVWTKWMHEAIKKCADYGLMVDVHDEYRPTGFSRTYPNLM | failed
KIIGYARVSFNAQKDDLERQIQLIKSYAEENGWDIQILKDIGSGLNEKRKNYKKLLKMVMNRKVEKVIIAYPDRLTRFGFETLKEFFKSYGTEIVIINKKHKTPQEELVEDLITIVSHFAGKLYGMHSHKYKKLTKTVKEIVREEDAKEKE | not failed
MFRIKQLAWAMGCVSLMSGCTLYPWYQNKAGQAVNVKPVMEVRHAIRSADALYQLGRYYQAKVDYAEAIAAYEKALEADPRHVEAHNGLGVAHCLLDRHELALQYFRKAIGMAPLAAHLHNNLGYAHLVHGQEAEAVSAFERALLLEPHNQRARRHLAAVYKKAGLHDKAAALTVAPSGAPVGATKAPPTAPIPTPAPGTPAGTPAGIPSAAISAISPPMAAAPGEKQKLSCSAAARLLQVTPGVFEFRMAETEAMTAMPSGKIIGRTAPPQDSGKFSGQDIRIEVSNGNGLPGMARQVSDFLQQNGFARARLTDRQPYQQALTEIHYRPGHSGVAEEISRLMPGGSGVPTVESYNLRRDIHVRVMLGKDAVRQVAHLESPQKVQIAQGTAGAVE | failed
MQSTIVIVNLLGAVALLLFGLAQVKDGVTRAFGMKLRSVLATGTQNGPRSFFSGFFATVALQSSTATALTVASFAERDLIKPRMAQVVLLGANVGTAVTAWIVAAGVEWLSPLLILAGIILKKGSSNARQGGGTAVIGIGLMLLSLHLLSGATEPMRASPALGVFIGLLDGAWPVALIFSAVLAFVSSSSLAVVVLILSLTATGTLSTGLIIVLILGANLGGAIPPVIATLSGPASARRITIGNLVVRTIGCLIAMPLASYGATYLQQLPLSPAKLPVDAHLIFNLILATLAWPFSGLISDLMAKLVPGDPKAEDGPNFLDQQALDVPVVALANATREVLSVGDSIERMLIRAENAFKHNDLAPLQEVALLEKKVDRRQQEVKVYLSQLGRKGLTDEEARRSIAIIDYAINLEHIGDIIEKGICEQIRKKVLNSFKFSDDGYEELKTLFDMTIENLRAAQSILVTGDFELARRLMESKVDIRRLEKQSSNRHLERLRDGLAESMQTSSLHLDMLRDLKRINAHIVTVAHPILDESGVLIESRLRYAEPRA | failed
MSSTKRQKNRVLVKLKKRKVRKDKIEKWAELALSALGLNNVELSVYITDDQEIRELNKTYRKKDKPTDVLSFPMGEEFGGYKILGDVVISQDTAERQARELGHSLEEEVKRLIVHGIVHLLGYDHEKGGEEEKKFRELENYVLSKLSKAL | not failed
MMRVLHISDTHFGTEREPVVHALHALADTLRPDLVVLGGDITQRARRGQFAAARRFIQALQRPVLAVPGNHDIPLFNLAARLFDPYGNYRRALGAVLEPVYEDDRLLAIGVNSTRAARRKNGEVSRTQAQRVAQRLRDARPGQLRVVALHHPVHAMVESDQRNLLIGREFAVPAWVDAGVDLILGGHIHLPYVAPLHGKAGEAGRRAWTVQAGTAVSRRVRGRVPNSVNLIDYAAQADSPACTVQRWDFQTDSGAFVLFGQQVLALNRARG | failed
VIVESLVYHLSGKTYESRLVYEPGALGRPGLVMAPNWMGIGEGAERIAKEVAEKGYVVLIADLYGQSVRPSNADEAGVAMMPLKNDRGELRKRMQEALAQLLGQSKALLEPGKVATFGFCFGGCCALELARSGADLRAAVSFHGTLDTPNPEDAKRIKGSVLVLHGASDPLVPKEQLPAFEDEMNAAKVDWQLLSYGGAVHSFTDPNANMPGKMQYDRRTSERAFRSMHNLLSEVF | failed
MAETVGMILCGGFGKRLRPLTEKIPKPLIEIKEGYTILDKQLFDLKNAGINTVYLLTGFLGERIEERYGDNYKGLRIEYVREEKPLGTLNAIRLGMEAIDGEKQCIIRNGDVVADLNIKKMIHLGEMSDYPLTMFITRMQSPYGIVETSGDKIINFREKPLLDYYINAGVYFSKGNLDFGDFESGDIEKTLFPLMAKENKLGYYREDGLFWMAIDTSKELEEIRKEYRNREDKPWGYEKILINTEKYLTKELFIREGYRTSFHYHEEKDETMYIISGSGYIEFDNRKEYFSKNDTIRIEPGERHSIVAMENTVLHEVSTPHLNDTVRVQDYYTRLEHHHHHH | not failed
MRGPAVLLTVALATLLAPGAGAPVQSQGSQNKLLLVSFDGFRWNYDQDVDTPNLDAMARDGVKARYMTPAFVTMTSPCHFTLVTGKYIENHGVVHNMYYNTTSKVKLPYHATLGIQRWWDNGSVPIWITAQRQGLRAGSFFYPGGNVTYQGVAVTRSRKEGIAHNYKNETEWRANIDTVMAWFTEEDLDLVTLYFGEPDSTGHRYGPESPERREMVRQVDRTVGYLRESIARNHLTDRLNLIITSDHGMTTVDKRAGDLVEFHKFPNFTFRDIEFELLDYGPNGMLLPKEGRLEKVYDALKDAHPKLHVYKKEAFPEAFHYANNPRVTPLLMYSDLGYVIHGRINVQFNNGEHGFDNKDMDMKTIFRAVGPSFRAGLEVEPFESVHVYELMCRLLGIVPEANDGHLATLLPMLHTESALPPDGRPTLLPKGRSALPPSSRPLLVMGLLGTVILLSEVA | failed
MVGTFLGTGASSGVPMLNCSCKVCTSSYSKNKRLRSSFFLESSSGIKLLIDTGPDIRQQLLREKIDRLDLVLYTHEHYDHIMGFDDIKFYTRCAPLNIYARDTAMAHIRNAFPYNFTSKPSLSGKADIIANVIRDFEPFFFKSLKIVPIPLIHGDIISLGYRVGNLAYLTDVKFIPEASYDYLKNLDLLIIDAMRIKPHPAHLNFSEAFCVIKKINPKISYFTHIAHDIMHEEFDYLEKDNIYLAYDGLKIYILEHHHHHH | failed
